Source: patent US20200048333A1 (THOMAS JEFFERSON UNIVERSITY, published 2020)
No end group written: not given here.

Experiments:
GYDGDF = target: T1, GYDGDF (also: biotinylated (position not given here)); experiment: blot: antibody variant immobilized on nitrocellulose, biotinylated peptide bound, chemiluminescence
T1 construct: also called biotinylated α2Ct peptide GYDGDF
T1 peptide: GYDGDF

GDFYRA = target: T2, GDFYRA (also: biotinylated (position not given here)); experiment: as above
T2 construct: also called biotinylated α2Ct peptide GDFYRA
T2 peptide: GDFYRA

α2Ct fragment DGDFY = target: T3, α2Ct fragment DGDFY (human); experiment: biosensor; AFA immobilized, peptide in solution
T3 construct: One of the overlapping peptides spanning the human α2Ct; also called A2_DGDFY
T3 peptide: DGDFY
Protocol: (§1) Kinetics of the binding of the AFA to defined α2Ct epitopes. Employing a biosensor, we also analyzed the kinetics of the binding of the AFA with defined epitopes of the human α2Ct. For these assays we employed the AFA, control human IgG, and a set of overlapping peptides spanning the α2Ct (Table 3). In brief, the AFA and control human IgG were covalently immobilized on separate channels of a sensor chip. Subsequently, the binding of the α2Ct fragments to the immobilized antibodies was analyzed. Finally, the dissociation equilibrium constant (KD) values for each α2Ct fragment were calculated (Table 1).

α2Ct fragment DFYRA = target: T4, α2Ct fragment DFYRA (human); experiment: biosensor; AFA immobilized, peptide in solution
T4 construct: One of the overlapping peptides spanning the human α2Ct
T4 peptide: DFYRA
Protocol: as §1

α2Ct fragment GYDFG = target: T5, α2Ct fragment GYDFG (human); experiment: biosensor; AFA immobilized, peptide in solution
T5 construct: One of the overlapping peptides spanning the human α2Ct
T5 peptide: GYDFG
Protocol: as §1

α2Ct fragment DFGYD = target: T6, α2Ct fragment DFGYD (human); experiment: biosensor; AFA immobilized, peptide in solution
T6 construct: One of the overlapping peptides spanning the human α2Ct
T6 peptide: DFGYD
Protocol: as §1

α2Ct fragment GYDGD = target: T7, α2Ct fragment GYDGD (human); experiment: biosensor; AFA immobilized, peptide in solution
T7 construct: One of the overlapping peptides spanning the human α2Ct
T7 peptide: GYDGD
Protocol: as §1

[1] = target: T8, synthetic full-length α2(I) C-telopeptide of human collagen I (α2Ct) (human); experiment: biosensor; table of α2Ct fragments binding to AFA
T8 construct: also called synthetic α2Ct; full-length α2Ct
T8 peptide: GGGYDFGYDGDFYRA
Protocol: as §1

[2] = target: T9, human procollagen I isolated from human dermal fibroblasts (human, UniProt P02452 23-1464; P08123 23-1366); experiment: biosensor; procollagen I immobilized, antibody in solution
T9 construct: Native triple-helical heterotrimer; also called native α2Ct present in procollagen I
T9 sequence (P02452 23-1464, chain 1 of 2): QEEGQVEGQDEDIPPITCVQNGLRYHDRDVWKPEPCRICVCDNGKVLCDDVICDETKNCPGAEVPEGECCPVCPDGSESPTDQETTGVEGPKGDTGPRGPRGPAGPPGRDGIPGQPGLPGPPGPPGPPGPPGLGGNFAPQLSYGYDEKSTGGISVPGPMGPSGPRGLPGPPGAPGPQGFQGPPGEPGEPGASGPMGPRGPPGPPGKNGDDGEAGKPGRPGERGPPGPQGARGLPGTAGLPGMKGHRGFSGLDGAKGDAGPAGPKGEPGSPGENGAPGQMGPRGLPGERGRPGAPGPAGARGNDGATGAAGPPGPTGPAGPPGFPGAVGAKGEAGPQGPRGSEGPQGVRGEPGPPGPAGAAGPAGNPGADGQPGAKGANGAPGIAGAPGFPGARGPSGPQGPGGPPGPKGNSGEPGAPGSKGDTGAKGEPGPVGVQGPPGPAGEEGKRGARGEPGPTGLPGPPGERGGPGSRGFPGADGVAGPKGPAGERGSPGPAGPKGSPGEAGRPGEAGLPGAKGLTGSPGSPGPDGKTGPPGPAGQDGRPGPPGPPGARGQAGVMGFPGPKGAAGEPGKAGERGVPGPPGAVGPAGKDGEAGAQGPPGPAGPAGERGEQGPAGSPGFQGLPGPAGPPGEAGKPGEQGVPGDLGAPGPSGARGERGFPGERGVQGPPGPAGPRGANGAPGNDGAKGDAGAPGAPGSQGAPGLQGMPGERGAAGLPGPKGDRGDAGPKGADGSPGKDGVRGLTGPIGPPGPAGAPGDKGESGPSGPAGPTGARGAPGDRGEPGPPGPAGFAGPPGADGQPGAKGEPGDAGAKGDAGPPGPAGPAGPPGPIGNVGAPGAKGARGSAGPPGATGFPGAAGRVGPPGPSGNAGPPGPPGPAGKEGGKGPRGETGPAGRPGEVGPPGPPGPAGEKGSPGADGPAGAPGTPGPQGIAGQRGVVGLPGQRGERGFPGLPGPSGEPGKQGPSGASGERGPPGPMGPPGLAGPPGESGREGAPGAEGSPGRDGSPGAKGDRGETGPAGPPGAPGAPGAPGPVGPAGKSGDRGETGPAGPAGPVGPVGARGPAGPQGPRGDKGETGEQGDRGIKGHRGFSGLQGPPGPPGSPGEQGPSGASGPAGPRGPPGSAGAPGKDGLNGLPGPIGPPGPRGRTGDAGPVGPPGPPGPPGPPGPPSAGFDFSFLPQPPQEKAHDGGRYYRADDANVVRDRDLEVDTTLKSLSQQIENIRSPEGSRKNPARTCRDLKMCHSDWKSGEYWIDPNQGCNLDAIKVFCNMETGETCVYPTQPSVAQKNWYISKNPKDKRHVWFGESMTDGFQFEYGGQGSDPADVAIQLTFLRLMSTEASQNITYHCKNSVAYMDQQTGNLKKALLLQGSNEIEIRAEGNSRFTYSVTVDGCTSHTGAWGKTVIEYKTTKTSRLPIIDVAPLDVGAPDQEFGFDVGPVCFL
T9 sequence (P08123 23-1366, chain 2 of 2): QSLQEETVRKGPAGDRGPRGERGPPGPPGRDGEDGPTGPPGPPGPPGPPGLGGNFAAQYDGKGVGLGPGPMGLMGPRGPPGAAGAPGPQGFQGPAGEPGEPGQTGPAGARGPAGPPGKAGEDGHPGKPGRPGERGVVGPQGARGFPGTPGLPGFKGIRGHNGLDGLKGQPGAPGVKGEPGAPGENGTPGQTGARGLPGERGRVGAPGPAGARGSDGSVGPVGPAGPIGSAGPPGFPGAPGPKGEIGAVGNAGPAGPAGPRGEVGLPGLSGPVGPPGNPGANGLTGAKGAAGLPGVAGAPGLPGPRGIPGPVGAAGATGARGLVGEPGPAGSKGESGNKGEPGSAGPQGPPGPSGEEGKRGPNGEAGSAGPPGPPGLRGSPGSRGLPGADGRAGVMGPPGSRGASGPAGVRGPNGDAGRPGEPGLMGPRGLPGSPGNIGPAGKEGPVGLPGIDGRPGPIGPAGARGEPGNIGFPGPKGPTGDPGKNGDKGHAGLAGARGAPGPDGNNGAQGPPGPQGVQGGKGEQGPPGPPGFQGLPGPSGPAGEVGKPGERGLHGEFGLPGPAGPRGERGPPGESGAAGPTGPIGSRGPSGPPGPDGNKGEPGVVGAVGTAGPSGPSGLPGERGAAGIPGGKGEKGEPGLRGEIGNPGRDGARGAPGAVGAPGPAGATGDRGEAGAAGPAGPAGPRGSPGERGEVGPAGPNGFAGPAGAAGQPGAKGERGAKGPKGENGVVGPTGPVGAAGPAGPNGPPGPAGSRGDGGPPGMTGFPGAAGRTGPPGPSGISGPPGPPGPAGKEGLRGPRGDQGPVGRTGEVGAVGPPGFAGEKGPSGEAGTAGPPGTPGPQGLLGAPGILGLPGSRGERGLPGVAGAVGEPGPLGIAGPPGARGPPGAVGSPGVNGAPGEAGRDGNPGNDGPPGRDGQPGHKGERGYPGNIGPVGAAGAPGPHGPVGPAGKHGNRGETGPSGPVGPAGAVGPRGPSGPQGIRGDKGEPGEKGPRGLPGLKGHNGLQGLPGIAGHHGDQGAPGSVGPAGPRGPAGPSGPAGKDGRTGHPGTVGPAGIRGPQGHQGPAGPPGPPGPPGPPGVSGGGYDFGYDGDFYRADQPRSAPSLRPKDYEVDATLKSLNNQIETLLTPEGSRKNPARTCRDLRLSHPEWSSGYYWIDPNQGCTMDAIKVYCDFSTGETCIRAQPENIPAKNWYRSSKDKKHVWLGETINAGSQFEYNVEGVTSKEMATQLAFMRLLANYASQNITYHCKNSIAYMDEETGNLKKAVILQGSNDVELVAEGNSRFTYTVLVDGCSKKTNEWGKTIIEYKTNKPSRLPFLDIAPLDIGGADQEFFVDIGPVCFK
Protocol: (§2) In brief, human procollagen I isolated from human dermal fibroblasts and synthetic α2Ct were immobilized on separate channels of a biosensor. Subsequently, the full-length AFA or its Fab fragments, generated by digestion with papain, were added at various concentrations to a sensor to record the association and the dissociation phases. Data from the AFA binding interactions and the Fab binding interactions were then used to calculate the KD values. In a separate set of experiments, the binding interactions of the scFv variant consisting of the VL and VH domains connected via a peptide linker were also tested using a biosensor. In these assays, the scFv-procollagen I binding interactions were studied.

[3] = target: T8, synthetic full-length α2(I) …; experiment: biosensor; synthetic α2Ct immobilized, antibody in solution
Protocol: as §2

[4] = target: T9, human procollagen I isolated from human …; experiment: biosensor; procollagen I immobilized, Fab in solution
Protocol: as §2

[5] = target: T8, synthetic full-length α2(I) …; experiment: biosensor; synthetic α2Ct immobilized, Fab in solution
Protocol: as §2

[6] = target: T9, human procollagen I isolated from human …; experiment: biosensor; scFv-procollagen I
Protocol: as §2

B1: chimeric human IgG-type AFA (antibody, V domains shown)
VH: AQIQLVQSGPELKKPGETVKISCKASGYTFTDYPLHWVKQAPGKGLQWMAWINTETGEPTYADDFTGRFAFSLETSASTAYLQINNLKNEDTATYFCVRGYYYYWGQGTTLSVSS
VL: DIVMSQSPSSLAVSAGEKVTMSCKSSQSLLNSRTRKNNLAWYQQKPGQSPKLLIYWASTRESGVPDRFTGSGSGTDFTLTISSVQAEDLAVYYCKQSYNLWTFGGGTKLEIKR
notes: also called chIgG; chlgG
binding result (GYDGDF): binds | binding result (GDFYRA): binds

B2: original mouse IgA-type AFA (antibody, V domains shown)
VH: AQIQLVQSGPELKKPGETVKISCKASGYTFTDYPLHWVKQAPGKGLQWMAWINTETGEPTYADDFTGRFAFSLETSASTAYLQINNLKNEDTATYFCVRGYYYYWGQGTTLSVSS
VL: DIVMSQSPSSLAVSAGEKVTMSCKSSQSLLNSRTRKNNLAWYQQKPGQSPKLLIYWASTRESGVPDRFTGSGSGTDFTLTISSVQAEDLAVYYCKQSYNLWTFGGGTKLEIKR
notes: Mouse IgA from a hybridoma, with heavy α chain and light κ chain; also called native mouse IgA-type AFA; original IgA-type anti-α2Ct antibody
binding result (GYDGDF): binds | binding result (GDFYRA): binds

B3: full-length anti-fibrotic antibody (AFA), monoclonal anti-collagen I antibody against the α2(I) C-telopeptide (antibody, V domains shown)
VH: AQIQLVQSGPELKKPGETVKISCKASGYTFTDYPLHWVKQAPGKGLQWMAWINTETGEPTYADDFTGRFAFSLETSASTAYLQINNLKNEDTATYFCVRGYYYYWGQGTTLSVSS
VL: DIVMSQSPSSLAVSAGEKVTMSCKSSQSLLNSRTRKNNLAWYQQKPGQSPKLLIYWASTRESGVPDRFTGSGSGTDFTLTISSVQAEDLAVYYCKQSYNLWTFGGGTKLEIKR
notes: The control was human IgG; also called full-length AFA; Full-length AFA antibody
Kd (α2Ct fragment DGDFY): 22.2 µM | Kd (α2Ct fragment DFYRA): 449 µM | Kd (α2Ct fragment GYDFG): 259 µM | Kd (α2Ct fragment DFGYD): 6400 µM | Kd (α2Ct fragment GYDGD): 604 µM | Kd [1]: 21 pM | Kd [2]: 0.000663 µM | Kd [3]: 21 pM

B4: Fab fragment of the AFA (Fab, V domains shown)
VH: AQIQLVQSGPELKKPGETVKISCKASGYTFTDYPLHWVKQAPGKGLQWMAWINTETGEPTYADDFTGRFAFSLETSASTAYLQINNLKNEDTATYFCVRGYYYYWGQGTTLSVSS
VL: DIVMSQSPSSLAVSAGEKVTMSCKSSQSLLNSRTRKNNLAWYQQKPGQSPKLLIYWASTRESGVPDRFTGSGSGTDFTLTISSVQAEDLAVYYCKQSYNLWTFGGGTKLEIKR
notes: also called Fab AFA antibody; Fab fragments of the AFA
Kd [4]: 0.268 µM | Kd [5]: 0.057 µM

B5: scFv variant of the AFA consisting of the VL and VH domains connected via a peptide linker (scFv, V domains shown, not shown: small tags and cut ends)
VL: DIVMSQSPSSLAVSAGEKVTMSCKSSQSLLNSRTRKNNLAWYQQKPGQSPKLLIYWASTRESGVPDRFTGSGSGTDFTLTISSVQAEDLAVYYCKQSYNLWTFGGGTKLEIKR
V domain: AQIQLVQSGPELKKPGETVKISCKASGYTFTDYPLHWVKQAPGKGLQWMAWINTETGEPTYADDFTGRFAFSLETSASTAYLQINNLKNEDTATYFCVRGYYYYWGQGTTLSVSS
notes: The domain order VL-linker-VH follows the wording 'VL and VH domains connected via a peptide linker'; also called single chain antibody
Kd [6]: 0.075 µM
